As usually defined, the Kd is the free concentration of one partner at which half of the binding sites on the other are occupied at equilibrium, for simple one-to-one binding. A high value points to weaker binding. Broadly, the stoichiometry N is the number of molecules, sites or subunits per partner or assembly.

In PMC4434759 one finds Kd and stoichiometry N data, which are given here for one substance.

This test addresses PsIAA4 PB1^AM3 (D151A/D153A/D155A) (pea (Pisum sativum)). Put plainly: ITC. In general terms: Isothermal titration calorimetry measures the heat released or taken up as one component is titrated into another.

“PsIAA4 PB1^BM3 (K96A/R106A/K107A) (domain or fragment)”: the Kd was found to be 6.4 µM and the stoichiometry N was found to be 1.
